2 molecules from patent US20220324970A1 (Janssen / Centocor, published 2022) can be followed below.

Assay [1] addresses T1, human pIgR, full-length, on cells (human, UniProt P01833 19-764). In words: cell-based or functional assay.
In assay [2] the target is T1, human pIgR, full-length, on cells. In words: flow cytometry on MDCK-hpIgR cells. For orientation: Flow cytometry measures light scatter and fluorescence of single cells or particles in a stream.
Experimental: (§1) Flow Cytometry was performed as follows. To test whether VHH-mono-Fc molecules recognize cell-surface hpIgR, Madin-Darby canine kidney (MDCK) cells engineered to express full-length hpIgR were used. Cells were cultured in Dulbecco's modified Eagle's medium containing 10% fetal calf serum at 37° C. with 5% CO₂. Cells were split into equal fractions (≈70,000 cells) and incubated with increasing concentrations of VHH-mono-Fc molecules for 30 min at 4 C. […] Cells were washed twice with cold staining buffer, resuspended in running buffer and analyzed with an iQue Screener (IntelliCyt Corporation). Binding was assessed by RL1 (A647) Geomeans from the live cell population and EC50 was calculated by fitting log VHH concentration versus MFI in Prism (Graphpad).
The target of assay [3] is T2, human pIgR extracellular domain (ECD) (human, UniProt P01833 19-638).
T2 construct: also called hpIgR ECD
In words: BLI; summary table, repeats Table 1. On the technique in general: BLI is a label-free optical method that tracks binding on a fibre tip over time.

The target of assay [4] is T2, human pIgR extracellular domain (ECD). The experiment in a line: BLI, relative to full-length hpIgR ECD.
Experimental: (§2) Bio-layer Interferometry was performed as follows. […] Data were collected with Octet Data Acquisition version 7.1.0.87 (ForteBio) and analyzed using Octet Data Analysis version 7.1 (ForteBio). To measure binding kinetics between VHH-mono-Fc molecules and HIS-tagged pIgR proteins, VHH-mono-Fc was immobilized on amine-reactive generation-2 (ARG2) biosensors according to manufacturer's instructions and increasing concentrations of pIgR proteins were exposed to sensor-immobilized VHH. In some cases, HIS-tagged pIgR proteins were immobilized on anti-HIS biosensors and exposed to increasing concentrations of VHH-mono-Fc molecules. Association and dissociation rates were measured by the shift in wavelength (nm). […] All reactions were performed at 25° C. in PBS.
(§3) (Full-length hpIgR ECD was purchased from R&D Systems.) The five constructs (D1-D2, D1, D1_tCDR1, D1_tCDR2, D1_tCDR3) were expressed and purified from HEK293 cells using immobilized metal ion affinity chromatography. Three hpIgR domain-1 CDR mutants (D1_tCDR1, D1_tCDR2, D1_tCDR3) contain respective teleost fish CDR on a hpIgR domain-1 framework. His-tagged pIgR constructs were immobilized on anti-HIS biosensors and binding of VHH-mono-Fc molecules to pIgR constructs were measured by bio-layer interferometry.
Assay [5] deals with T3, human pIgR extracellular domain 1 (D1) (human, UniProt P01833 19-127).
T3 construct: HIS-tagged construct made in HEK293 cells; also called hpIgR domain-1
The experiment in a line: BLI, relative to full-length hpIgR ECD.
Target sequence in this assay (P01833 other isoform, or with tags, fused parts or gaps limits assumed): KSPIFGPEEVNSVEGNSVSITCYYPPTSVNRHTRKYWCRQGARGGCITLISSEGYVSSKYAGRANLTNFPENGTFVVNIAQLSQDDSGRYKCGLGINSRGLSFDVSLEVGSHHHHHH
Experimental: as §2, §3

The target of assay [6] is T4, hpIgR domain-1 with teleost fish CDR1 (hD1 tCDR1) (human, UniProt P01833 19-127, limits assumed).
T4 construct: CDR-swapped hpIgR domain-1 mutant, HIS-tagged, made in HEK293 cells; not shown: HIS tag
In words: BLI, relative to full-length hpIgR ECD.

Assay [7] has as its target T2, human pIgR extracellular domain (ECD). The experiment in a line: ECL (MSD), hpIgR-ECD coated, anti-VHH detection.
Assay [8] addresses T5, hpIgR domain-1 with teleost fish CDR2 (hD1 tCDR2) (human, UniProt P01833 19-127, limits assumed).
T5 construct: CDR-swapped hpIgR domain-1 mutant, HIS-tagged, made in HEK293 cells; not shown: HIS tag
T5 chain: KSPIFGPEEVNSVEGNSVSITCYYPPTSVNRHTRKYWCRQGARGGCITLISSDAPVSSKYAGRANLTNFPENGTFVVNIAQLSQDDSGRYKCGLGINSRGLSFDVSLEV
In words: BLI, HIS-tagged construct on anti-HIS biosensors.

The target of assay [9] is T3, human pIgR extracellular domain 1 (D1). The experiment in a line: ratio of the second to the first EC50 column.
The target in assay [10] is T6, human pIgR extracellular domain 1-domain 2 (D1-D2) (human, UniProt P01833 19-240).
T6 construct: HIS-tagged construct made in HEK293 cells
In words: ratio of the second to the first EC50 column.

The target of assay [11] is T2, human pIgR extracellular domain (ECD). In words: ECL (MSD), anti-VHH detection against anti-Fc detection.
Experimental: To check whether VHH recognizes a buried epitope on pIgR, EC₅₀ values were measured for VHH-mono-Fc molecules binding to hpIgR-ECD protein by electrochemiluminescence using two different detection antibodies, an anti-Fc antibody and an anti-VHH antibody. pIgR ECD (10 μg/ml in PBS) was coated on high-bind MSD plates for 2 hours at RT with 1000 rpm, incubated with blocking buffer for 1 hour at RT, incubated with VHH-mono-Fc molecules (increasing concentrations in PBS) for 2 hours at RT with 1000 rpm, washed 3× with PBT, incubated with ruthenylated secondary antibody (2 μg/ml in PBS) for 1 hour at RT with 1000 rpm, washed 3× with PBT and read plates in 40 ul reading buffer using the MSD imager. EC50 was calculated by fitting log VHH concentration versus log ECLU in Prism (Graphpad). The increase in EC₅₀ (>50-fold) due to anti-VHH detection was used as a measure to determine whether VHH recognized buried epitope on pIgR.
The target of assay [12] is T1, human pIgR, full-length, on cells. The experiment in a line: flow cytometry on MDCK-hpIgR cells; summary table, repeats Table 1.
The target is the same in assay [13]. The assay is described as above. This is another data set of the same source.
Experimental: as §1
Assay [14] addresses T3, human pIgR extracellular domain 1 (D1). The experiment in a line: ECL (MSD), Log ECLU against Log [VHH] nM, anti-Fc detection (first EC50 column).
Assay [15] deals with T6, human pIgR extracellular domain …. Described as above.
A further assay has as its target T7, hpIgR_D3.
T7 construct: HIS-tagged construct from HEK293 cells; also called human pIgR extracellular domain 3 (D3); hD3
T7 HIS-tagged domain construct: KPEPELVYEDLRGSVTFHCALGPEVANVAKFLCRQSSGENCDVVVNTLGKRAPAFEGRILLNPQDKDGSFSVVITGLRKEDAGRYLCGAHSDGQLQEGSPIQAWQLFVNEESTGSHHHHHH
In words: ECL (MSD) heat map, HIS-tagged construct captured via anti-HIS, anti-human-Fc detection.

In assay [16] the target is T8, human pIgR extracellular domain 2 (D2) (human, UniProt P01833 128-242).
T8 construct: HIS-tagged construct made in HEK293 cells; also called hpIgR domain 2
The assay is described as above.

For assay [17], the target named is T9, human pIgR extracellular domain 5 (D5) (human, UniProt P01833 460-565).
T9 construct: HIS-tagged construct made in HEK293 cells; also called hpIgR domain 5
Described as above.

Another assay has as its target T10, hpIgR_D2-D3.
T10 construct: HIS-tagged construct from HEK293 cells; also called human pIgR extracellular domain 2-domain 3 (D2-D3); hD2-D3
T10 HIS-tagged domain construct: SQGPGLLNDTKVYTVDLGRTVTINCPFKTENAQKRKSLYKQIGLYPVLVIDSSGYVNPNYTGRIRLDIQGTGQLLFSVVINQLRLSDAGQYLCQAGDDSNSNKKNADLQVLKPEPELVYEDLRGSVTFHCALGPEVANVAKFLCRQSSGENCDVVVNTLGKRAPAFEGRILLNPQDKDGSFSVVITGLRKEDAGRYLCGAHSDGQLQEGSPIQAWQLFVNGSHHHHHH
The assay is described as above.

The target of assay [18] is T3, human pIgR extracellular domain 1 (D1). The experiment in a line: ECL (MSD); headed 'Anti-Fc' on the sheet, but its ECD values are the anti-VHH values of Table 2, so anti-VHH detection.
In assay [19] the target is T6, human pIgR extracellular domain …. The assay is described as above.

T2 sequence (P01833 other isoform, or with tags, fused parts or gaps): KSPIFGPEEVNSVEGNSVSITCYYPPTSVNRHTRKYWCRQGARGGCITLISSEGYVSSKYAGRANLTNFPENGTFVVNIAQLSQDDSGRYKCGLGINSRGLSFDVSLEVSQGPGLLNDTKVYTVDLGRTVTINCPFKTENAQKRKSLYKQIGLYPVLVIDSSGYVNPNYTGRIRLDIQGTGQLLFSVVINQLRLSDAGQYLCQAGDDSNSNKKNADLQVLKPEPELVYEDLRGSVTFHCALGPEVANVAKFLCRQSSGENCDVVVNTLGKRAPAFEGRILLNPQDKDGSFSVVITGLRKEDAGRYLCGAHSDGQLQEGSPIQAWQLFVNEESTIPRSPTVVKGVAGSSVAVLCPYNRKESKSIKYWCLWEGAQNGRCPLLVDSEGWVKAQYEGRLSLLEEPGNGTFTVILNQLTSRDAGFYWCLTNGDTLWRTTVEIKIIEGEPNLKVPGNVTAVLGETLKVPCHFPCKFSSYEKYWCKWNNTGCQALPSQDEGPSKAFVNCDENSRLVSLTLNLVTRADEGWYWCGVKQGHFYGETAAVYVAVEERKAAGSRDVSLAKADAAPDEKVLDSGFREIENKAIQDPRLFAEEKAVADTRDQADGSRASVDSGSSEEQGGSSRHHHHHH
T1 sequence (P01833 19-764): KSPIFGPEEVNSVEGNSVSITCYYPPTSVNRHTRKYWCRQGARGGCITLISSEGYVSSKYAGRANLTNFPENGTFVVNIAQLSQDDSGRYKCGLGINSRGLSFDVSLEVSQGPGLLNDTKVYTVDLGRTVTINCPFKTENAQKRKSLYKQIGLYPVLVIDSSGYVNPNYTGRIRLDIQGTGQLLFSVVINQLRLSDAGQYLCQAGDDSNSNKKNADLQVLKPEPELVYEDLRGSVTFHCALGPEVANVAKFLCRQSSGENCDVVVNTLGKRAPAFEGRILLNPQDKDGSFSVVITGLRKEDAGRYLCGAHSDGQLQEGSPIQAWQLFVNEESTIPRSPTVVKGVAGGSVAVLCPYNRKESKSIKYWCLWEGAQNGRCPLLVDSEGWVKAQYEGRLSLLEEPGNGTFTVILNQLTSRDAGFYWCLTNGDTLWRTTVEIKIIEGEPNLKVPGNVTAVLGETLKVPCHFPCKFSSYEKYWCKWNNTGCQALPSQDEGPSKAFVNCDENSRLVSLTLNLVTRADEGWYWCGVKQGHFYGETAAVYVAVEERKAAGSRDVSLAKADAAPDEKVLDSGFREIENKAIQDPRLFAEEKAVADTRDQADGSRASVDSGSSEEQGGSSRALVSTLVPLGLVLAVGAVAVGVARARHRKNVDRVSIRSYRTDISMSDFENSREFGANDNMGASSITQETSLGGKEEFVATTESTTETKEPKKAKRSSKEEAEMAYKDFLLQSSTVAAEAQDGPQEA
T9 sequence (P01833 other isoform, or with tags, fused parts or gaps limits assumed): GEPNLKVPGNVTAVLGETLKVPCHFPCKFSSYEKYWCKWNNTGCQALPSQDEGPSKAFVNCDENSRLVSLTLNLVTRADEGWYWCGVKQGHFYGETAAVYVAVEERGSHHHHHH
T4 sequence (P01833 other isoform, or with tags, fused parts or gaps limits assumed): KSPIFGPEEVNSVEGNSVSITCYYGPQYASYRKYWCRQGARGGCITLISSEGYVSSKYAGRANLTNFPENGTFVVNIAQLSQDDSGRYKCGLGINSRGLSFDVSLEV
Experimental for hpIgR_D2-D3: The Electrochemiluminescence assay was performed as follows. A meso-scale discovery (MSD) platform was used for conducting epitope mapping and epitope burial studies. To test the binding of VHH-mono-Fc molecules to purified pIgR protein constructs, Streptavidin MSD plates were coated with a biotinylated anti-HIS antibody (2 μg/ml in PBS) for 1 hour at RT with 1000 rpm, washed 3× with PBT (PBS+0.1% Tween-20), incubated with blocking buffer for 1 hour at RT, incubated with His-tagged pIgR proteins (10 μg/ml in PBS) for 2 hours at RT with 1000 rpm, washed 3× with PBT, incubated with VHH-mono-Fc molecules (100 μg/ml in PBS) for 2 hours at RT with 1000 rpm, washed 3× with PBT, incubated with ruthenylated-anti-human-Fc antibody (2 μg/ml in PBS) for 1 hour at RT with 1000 rpm, washed 3× with PBT and read plates in 40 ul reading buffer using the MSD imager. ECLU values were plotted as a heatmap.

B1: VHH2-linker-mono-Fc protein (Fc fusion)
chain: EVQVVESGGGLVQAGGSLKLACAAPGLTFSSYRMGWFRQAPGQEREFVAAIDWNGRGTYYRYYADSVKGRSTISRDNAKNTVYLQMNSLKPEDTAVYYCAATTVLTDPRVLNEYATWGQGTQVTVSSEPKTPKPQPQPQLQPQPNPTTESKSPKSPAPELLGGPSVFLFPPKPKDTLMISRTPEVTCVVVDVSHEDPEVKFNWYVDGVEVHNAKTKPREEQYNSTYRVVSVLTVLHQDWLNGKEYKCKVSNKALPAPIEKTISKAKGQPREPQVYTKPPSREEMTKNQVSLSCLVKGFYPSDIAVEWESNGQPENNYKTTVPVLDSDGSFRLASYLTVDKSRWQQGNVFSCSVMHEALHNHYTQKSLSLSPGK
notes: also called VHH2-mono-Fc; mpIgR_338
Regarding B1, in [1], the “For. Trans. (Fold Incr.)” value is 21 fold. Also, in assay [1], the “Rev. Trans (Fold Incr.)” value was found to be 5.7 fold. Moreover, the concentration for a half-maximal effect (EC50) (commonly the concentration needed to bring the measured effect to its halfway point) in assay [2] is 6.3 nM; in assay [7] it was 4 nM; in assay [12], 6.3 nM; in [13], 6.3 nM; in assay [14] it was 6.8 nM; in assay [15] it was 1.5 nM. Also, the concentration for a half-maximal effect (EC50) worked out at 8.1 nM in assay [18] and 1.8 nM in assay [19]. Also, in assay [3], the affinity, expressed as Kd, was 21 nM. For the same molecule, the “Fold change in KD” value stood at 1 fold in [4], 0.7 fold in assay [5] and 1 fold in [6]. In addition, the binding result is “no binding” in assay [8]; “no binding (tested: 100 ug/ml (single concentration))” with hpIgR_D3; “no binding (tested: 100 ug/ml (single concentration))” in assay [16]; “no binding (tested: 100 ug/ml (single concentration))” in assay [17]; “no binding (tested: 100 ug/ml (single concentration))” with hpIgR_D2-D3. The Fold change in assay [9] and in assay [10] was 1.2 throughout. Besides, in [11], the “Fold change in EC50” value stood at 1 fold.

B2: VHH3-linker-mono-Fc protein (Fc fusion)
chain: QLQLVESGGGLVQPGGSLRLSCAASGSIFSINVMGWYRQAPGKQRELVARINGGGITHYAESVKGRFTISRDNAKNTVYLQMNSLKPEDTAAYYCKADVFGSSGYVETYWGQGTQVTVSSEPKTPKPQPQPQLQPQPNPTTESKSPKSPAPELLGGPSVFLFPPKPKDTLMISRTPEVTCVVVDVSHEDPEVKFNWYVDGVEVHNAKTKPREEQYNSTYRVVSVLTVLHQDWLNGKEYKCKVSNKALPAPIEKTISKAKGQPREPQVYTKPPSREEMTKNQVSLSCLVKGFYPSDIAVEWESNGQPENNYKTTVPVLDSDGSFRLASYLTVDKSRWQQGNVFSCSVMHEALHNHYTQKSLSLSPGK
notes: made in CHO cells; also called VHH3-mono-Fc; hpIgR_021
As to B2, the “For. Trans. (Fold Incr.)” value in assay [1] came out at 1 fold. Also, the “Rev. Trans (Fold Incr.)” value in assay [1] came out at 1 fold. The 50% effective concentration (EC50) in assay [2] was 6.4 nM; in assay [7], 28.6 nM; in assay [12], 6.4 nM; in [13] it was 6.4 nM; in [14] it was 3.1 nM; in [15] it was 1.2 nM. The EC50 is 17.6 nM in [18] and 13.7 nM in [19]. Also, in [3], the Kd (as a rule, the equilibrium constant for the complex coming apart) amounted to 5 nM. Moreover, the “Fold change in KD” value in assay [4] is 1 fold; in [5], 0.8 fold; in [6], 7.7 fold. Further, the binding result is “no binding” in [8]; “no binding (tested: 100 ug/ml (single concentration))” in the assay with hpIgR_D3; “no binding (tested: 100 ug/ml (single concentration))” in assay [16]; “no binding (tested: 100 ug/ml (single concentration))” in assay [17]; “no binding (tested: 100 ug/ml (single concentration))” in the assay with hpIgR_D2-D3. Further, the values for the Fold change in assay [9] and in assay [10] were 5.7 and 11.9, respectively. In assay [11], the “Fold change in EC50” value stood at 54 fold.
